Results from the RNAGym collection of RNA variant scans (doi:10.1073/pnas.2313332121).
Fewer inactive variants are shown than the library holds.

B1: TPR 5TU (parent)
chain: GGAUCUUCUCGAUCUAACAAAAAAGACAAAUCUGCCACAAAGCUUGAGAGCAUCUUCGGAUGCAGAGGCGGCAGCCUUCGGUGGCGCGAUAGCGCCAACGUUCUCAACUAUGACACGCAAAACGCGUGCUCCGUUGAAUGGAGUUUAUCAUG

Variants of: B1
Assay: polymerase ribozyme fitness, log enrichment relative to wild type (log ratio); higher = more active; in vitro selection for triplet polymerase activity
In short: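 The heterodimeric triplet polymerase ribozyme's subunits were each mutagenized into PCR-built libraries and transcribed. Every library was selected once, in triplicate, by annealing with a biotinylated primer, the partner subunit and triplets, incubating frozen at −7 °C, gel-excising extended constructs, capturing on streptavidin beads and running RT-PCR. Input and output libraries were Illumina-sequenced, with genotypes kept only at ≥10 input reads and ≥1 read per output. Fitness, from inverse-variance-weighted replicate averages, is the base-2 logarithm of genotype enrichment over wild-type enrichment.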

| Variant | polymerase ribozyme fitness (log ratio) |
| --- | --- |
| A24U C87A | ≤ -4.2 |
| A24U C87U | -0.48 |
| A24G G74A C93G G140C U151G | ≤ -4.2 |
| A24G U31A C38G U53A C57A U77C G83A A137C | ≤ -4.2 |
| A23U C93A A97G A113G G124U | ≤ -4.2 |
| A23U G50C U139G | ≤ -4.2 |
| A24U C32A | -3.85 |
| A23G U44A U61A G70U C76G C93G G143C | ≤ -4.2 |
| A24C A29C U55G G94C | ≤ -4.2 |
| A24U A40C A98U | 0.235 |
| A24U C63A | 1.21 |
| A24U A39U C96A C99G U130C C131G | ≤ -4.2 |
| A24U C93U A142C | -2.21 |
| A24U C43A A60C C96A A119U G126A | ≤ -4.2 |
| A24U U45G G92C | -2.88 |
| A24U A28C U33A G59A G140U U144G U146G | ≤ -4.2 |
| A24U C57U A89U G92C U127C C131G | ≤ -4.2 |
| A24U C125A | -0.572 |
| A24C U53C C118U A142C | ≤ -4.2 |
| A24U C38G C57G G83C A91U C105A C149A | ≤ -4.2 |
| A24U A41U G86U | -3.62 |
| A24U C131U | 2.4 |
| A24U G68C G83U A107C | ≤ -4.2 |
| A24U A29G A52G A91U G126U U144G | ≤ -4.2 |

| Variant | polymerase ribozyme fitness (log ratio) |
| --- | --- |
| A23G U33G G100C U148C | ≤ -4.2 |
| A23U G50C A122C G141C | ≤ -4.2 |
| A24C A30C A41U A66U U82C G86U G94U C116A | ≤ -4.2 |
| A24U C35A A41C G88C | ≤ -4.2 |
| A24U C93A G112A C114U C116G A119G | ≤ -4.2 |
| A23G U31A G58C G70C C93G A107G | ≤ -4.2 |
| A23G U130C A138U | -4.2 |
| A24C C27G U33G C38U A47U U82A G128U | ≤ -4.2 |
| A23U A29C C51U G68U C72G G94C G136A A147C | ≤ -4.2 |
| A24C G46C A73G C93A A110U A147U | ≤ -4.2 |
| A24C C32U A49C C85G G86A A91G C123G C132A | ≤ -4.2 |
| A23G G50C G86C A89G G92U A97U G141C | ≤ -4.2 |
| A24C G67C G92U C99U U109G A110U | ≤ -4.2 |
| A24U G94A | 0.123 |
| A23U C76G | ≤ -4.2 |
| A24G C125G | -3.52 |
| A24G A30G A47U A52C A60C C76A G100A C114A C118G G140A | ≤ -4.2 |
| A24U A47C G86A G94C C118U A137G | ≤ -4.2 |
| A23U A29U C79G G81U C93G C149U | ≤ -4.2 |
| A23U U56G G58C G74C G88U | ≤ -4.2 |
| A23U U55A C57U G68U A73G G80C G94U U104C | ≤ -4.2 |
| A24U C93U G136A | -1.47 |
| A24U C96U G117A G133A U145A | ≤ -4.2 |
| A23U U90C C93U U102G A119U G124A G133U U134C | ≤ -4.2 |

| Variant | polymerase ribozyme fitness (log ratio) |
| --- | --- |
| A24U C51A U56A G71U G88C U102C | ≤ -4.2 |
| A23U U45C A66G C85U | ≤ -4.2 |
| A24U G136U | -2.44 |
| A24G G86U | -3.77 |
| A23G G84U | -3.88 |
| A24U A41C U45A G46C A49C G86A | -3.99 |
| A23G G59A G68U A142U | ≤ -4.2 |
| A24C C95A C96G U144C | ≤ -4.2 |
| A24G U33G G71A C87G C93G C96A A98G A137G | ≤ -4.2 |
| A24G C85A U146C | ≤ -4.2 |
| A24U C35U C38G A89U A91U | -3.93 |
| A24C U31C U33G U53A U78A G88U U134C | ≤ -4.2 |
| A24G U53A C96G A122G A142C | ≤ -4.2 |
| A24C C93U C114U A119G | ≤ -4.2 |
| A24U U53A U55A C95U C99A | ≤ -4.2 |
| A23G G50U U146G | -3.73 |
| A23U U55A G128U | ≤ -4.2 |
| A23U A91G | ≤ -4.2 |
| A24C G50C C96G A110U | ≤ -4.2 |
| A23U G84A | -3.32 |
| A24G A37U A115G U130C U135A A150U | ≤ -4.2 |
| A23U G58C G88U G136A | ≤ -4.2 |
| A24U A98U C99U U127G | -3.94 |
| A23G U61G C93G G126A | ≤ -4.2 |

| Variant | polymerase ribozyme fitness (log ratio) |
| --- | --- |
| A24G C93U | -3.49 |
| A24U U31C G68U G70A G94U C116G U139G | ≤ -4.2 |
| A24U A28C G59C G86C A122U G133C | ≤ -4.2 |
| A24C U61A C63G G81A G94A | ≤ -4.2 |
| A24U A26C C27G C36G G81A A98G G136U U139G A142C | ≤ -4.2 |
| A23U A52G C85U A89G A106G G141U U148G | ≤ -4.2 |
| A24U A73U A119G A121U C132A | -3.66 |
| A23U A24C C51U U53A A98U | ≤ -4.2 |
| A24G A26C A29C C79A C93U A115G G117A U144C A150C | ≤ -4.2 |
| A24G A49G C105U G117U | ≤ -4.2 |
| A24G C96G A137U | ≤ -4.2 |
| A24G A66G C85A A91U U127C G133A U134A | ≤ -4.2 |
| A23U U55A | -3.85 |
| A24C U56A G68A G141A | ≤ -4.2 |
| A24G C69A A91U A138U G143U | ≤ -4.2 |
| A23U U31C C87G U104G | ≤ -4.2 |
| A24G U61C U82G C95U | ≤ -4.2 |
| A23U G86U A89G C105G C129U | ≤ -4.2 |
| A24U U31G A52C G65A G84C C87U A119G | ≤ -4.2 |
| A24U U31A A37U G143C | ≤ -4.2 |
| A24U A52G | 0.771 |
| A23U U109A | ≤ -4.2 |
| A24U G59C | 0.829 |
| A24C G46A G94U C95A A115C | ≤ -4.2 |

| Variant | polymerase ribozyme fitness (log ratio) |
| --- | --- |
| A24G A30U U31C U101G | -3.98 |
| A23U G42C C75U U82G G84U C96A | ≤ -4.2 |
| A24U G34U G42A U55G A91C G94A | -3.62 |
| A24U C54A G86A | -3.38 |
| A24C C54G C76U U78A C105A A147C | ≤ -4.2 |
| A24U G46C A73G C87U G92C | -3.37 |
| A24G A40C U55G A97U | ≤ -4.2 |
| A23U C54A G83U U102G | ≤ -4.2 |
| A24C G68U C75G C76G A110G A121U | ≤ -4.2 |
| A24U A30C C93G C118A | ≤ -4.2 |
| A24U A73U C87A A89U | ≤ -4.2 |
| A23U G25U A29U C43U G58U G86A A107G | ≤ -4.2 |
| A24C C85U A120C U146A | ≤ -4.2 |
| A23U C114U | -3.88 |
| A24U A52G A106G G143A | -1.81 |
| A23U G25C A52C U55A A122C | ≤ -4.2 |
| A23U C43U G59C A60G G94C | ≤ -4.2 |
| A23U A30G U45A A97G G100U | -4.19 |
| A24G A52C C85U C96U C105U A120U G136A | ≤ -4.2 |
| A24G U53A U61A G84C C125U | ≤ -4.2 |
| A24C A98U | ≤ -4.2 |
| A24G U55G | -3.78 |
| A23U G48C C54A C75G G80C C96U G140A | ≤ -4.2 |
| A24U A52U C85U | -1.43 |

| Variant | polymerase ribozyme fitness (log ratio) |
| --- | --- |
| A24C C27G G94A A106G C108U | -3.93 |
| A23G G59U C95U A110G | -3.86 |
| A23U G59U C93U | ≤ -4.2 |
| A23U C125A | -3.51 |
| A23U U53A C96A C114G G143A U146G | ≤ -4.2 |
| A24C C85A G143C U146A | ≤ -4.2 |
| A24C A30G A73U C96A | ≤ -4.2 |
| A24C G62C G86U U102C | ≤ -4.2 |
| A23G U56A C63A C85U C93U | ≤ -4.2 |
| A24U C36G U56A C57A G71U A91C A106C A110G A138G | ≤ -4.2 |
| A24C U45A C57U G84A | ≤ -4.2 |
| A23U U148C | -4.13 |
| A23U G42C C54U C76A C93A U127C G133C | ≤ -4.2 |
| A24U C76G A138G | ≤ -4.2 |
| A24G A29C A37G G46U C57U C76U A122U A138G U144G U151C | ≤ -4.2 |
| A24U A52G C69G G70C G88A | ≤ -4.2 |
| A24G | -1.75 |
| A24U | 0.541 |
| A24C | -3.22 |
| A24C G86U U90A U101A A106G A113U A120U G126A | ≤ -4.2 |
| A24C A30U A138U U144G | ≤ -4.2 |
| A23U C36U C85A C96G A97U | ≤ -4.2 |
| A23U U77C C87U | ≤ -4.2 |
| A24C G86C G143A U148C | ≤ -4.2 |

| Variant | polymerase ribozyme fitness (log ratio) |
| --- | --- |
| A24U A30G A64G C87G A122U C125U C149U | ≤ -4.2 |
| A23U A37U A97U U111C | ≤ -4.2 |
| A24U G74C | -4.19 |
| A24C A64C | ≤ -4.2 |
| A24G U53A C95U | ≤ -4.2 |
| A24U A30C G140A | -3.94 |
| A24U A26U U55C A91G | ≤ -4.2 |
| A24U G58C U104A G141U | -1.93 |
| A23G G92U | -3.31 |
| A24U A41G C69A C99G | -2.54 |
| A23U A64C G67A G81C | ≤ -4.2 |
| A24C A29G C51U C95G C96U C114A U146C | ≤ -4.2 |
| A23U G50A C132U G140C | ≤ -4.2 |
| A24G C54U G67A G141A A150C | ≤ -4.2 |
| A24C A47G C79U G94C C125U | ≤ -4.2 |
| A24U C93U A119C | -1.98 |
| A23U A26U C51A A66U C85U U148C | ≤ -4.2 |
| A23U C43A C69G C99G U139A U144A | ≤ -4.2 |
| A24U C32G U135G G143A | -4.12 |
| A24U U53A C57A C95A C123G | 0.167 |
| A24U A26U C54U G84U U127A | ≤ -4.2 |
| A24U G34A G92C A137G | -4.07 |
| A24G C75A A113U | ≤ -4.2 |
